From PMC9091645

Substrate: CCCC(=O)Oc1ccc([N+](=O)[O-])cc1
Experiment: initial rates of p-nitrophenyl butyrate hydrolysis
Type: biochemical, Rhizopus arrhizus
Conditions: 30 °C, 25 mM phosphate buffer pH 8, substrate 10-100 mM

B1: ROL (Rhizopus oryzae lipase; wild type WROL) (Rhizopus arrhizus) (protein)
chain: SDGGKVAAATTAQIQEFTKYAGIAATAYCRSVVPGNKWDCVQCQKWVPDGKIITTFTSLLSDTNGYVLRSDKQKTIYLVFRGTNSFRSAITDIVFNFSDYKPVKGAKVHAGFLSSYEQVVNDYFPVIQEQLTANPTYKVIVTGHSLGGAQALLAGMDLYQREPRLSPKNLSIFTVGGPRVGNPTFAYYVESTGIPFQRTVHKRDIVPHVPPQSFGFLHPGVESWIKSGTSNVQICTSEIETKDCSNSIVPFTSLLDHLSYFDINEGSCL
  Km: 5.56 mM
  Vmax: 2.34 µmol/min/mg
  kcat: 1.25 s⁻¹
  kcat/Km: 220 M⁻¹ s⁻¹
